Assay results as given in the supplement of paper PMC12764529.
± gives the half width of the 95% confidence interval.

Test: folding stability dG unfold (combined trypsin and chymotrypsin); higher = more stable
Procedure, shortened: (§1)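 Digests were run with trypsin and chymotrypsin at 11 concentrations in threefold dilutions, plus a no-protease condition, on designed mini-proteins in a PA-tagged cDNA display construct. The mini-proteins were under 80 residues, had no cysteine, and were kept only when AlphaFold2 dimer inter-PAE was above 15. After sequencing, Bayesian fitting of the counts gave K50, from which unfolding free energy was derived against a sequence-predicted unfolded-state K50 and a shared folded-state K50, per protease or combined.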

Row | Sequence | folding stability dG unfold [kcal/mol]
1 | SAGGSMTITYDPETNTVTILDPNIPPNEPRPVTLTLPDGEKYTLTLRPVPGNGWTGTLTWKSTKDGSAGGSA [r2_89_TrMRF] | 1.27 ± 0.21
2 | SAGGSAGLPEAIAEAIARELQAEPGYELDVEAEVDPETGTLHIRARVRLPDDDTWFELEITVPLPASAGGSA [r15_464_TrMRF] | 2.93 ± 0.13
3 | SAGGSAGGSAGGMPIPIIVIPTPPNGNFTPEQIKEVAEKLNDPVVLTEESDNSRVILVGSAGGSAGGSAGGS [r10_642_TrMRF] | 0.519 ± 0.16
4 | SANPGKPVTIEIPVEEIRQKLNEENPDKPLTPSELKDLAKELIQRQGFPFKDVEIKSVNPGNGWIKIKVSAG [r14_303_TrROS] | 0.279 ± 0.5
5 | SAGGSAEEARALAEQVREEVRAAHAPDEVVTVTVELPDGTRVEVTFDAAGEVLSVTIYRPDGTPELSAGGSA [r2_84_JUSTAS] | 1.88 ± 0.077
6 | MRVVFEATYTDPEGVPVTETFVIPEEVLEEIEREGRPITREELVELAEEIIRDYTKEHDADVEFRFVEFEPS [r1_174_TrMRF] | 2.27 ± 0.1
7 | SAGGSASMARVEAIAEEIAPRLKAEGRPIARIEVTATRLPDGTVVVPITLTTPDGTPVYTFEVVVESAGGSA [r15_232_JUSTAS] | 1.48 ± 0.058
8 | SQVKIHIPFEVEYSPENGNYFFMIRVRYPGKERPIMFPYKDPEQMREWARTIAKELAKENPDNVEIEIWWSA [r9_1148_TrROS] | 2.73 ± 0.15
9 | SAGGDSVYIPGSISEAIDALRENPNKTVHIMSPDGYYIKITVKWDGDGDYKIDIKWQPPPPPPDPEDKSAGG [r13_56_TrROS] | 2.23 ± 0.39
10 | SAGGSAGGSAMTFFVAVVKTETRVLPDGSLETRSSIEVKPVPAIPAEDLIKKLGLPLEDIASAGGSAGGSAG [r3_338_TrMRF] | 2.61 ± 0.14
11 | SAGGSAGGSAIKPGETIPIKIGNFPIKITVYGDWVEITFPNGRKIRFRVAVDDGKLEIDIYFSAGGSAGGSA [r18_172_TrROS] | 4.18 ± 0.14
12 | SAGGSAGGSAKPTFDNVENLSLEELAKKIAKEAAEKYPDAKNVEVEFRLPNGKSYRIVVDVDSAGGSAGGSA [r18_449_TrMRF] | 1.26 ± 0.096
13 | SAGMLSSETVPFPDSEITIEYDPETGTVKITTTTTTSSPSLDYRTGKPGSVSSSTTTSFEVEAEPGAELSAG [r5_195_JUSTAS] | 0.254 ± 0.18
14 | SAGGFLENLPDEVVEAALAAVLPDGSRVFVALRKGPDRPRVLIITFDANGVPRDIRELDPEEALKALEASAG [r5_73_TrMRF] | 2.68 ± 0.034
15 | SAMKVYEIPIEIPISKYKPSDIIAALKKALDKLNIPFPEEIIKELTIISIKTGGNISTAIKTLLENGLLSAG [r14_364_TrMRF] | 1.56 ± 0.17
16 | SMKISSFTLAPGGEAVIELTFESGETRRVRLTGLTSKAEVEAEAKRLQEELEKGNPRPIKTVTVSPAPPASA [r9_1135_JUSTAS] | 1 ± 0.094
17 | SAGGSAGGSAGGMKLVITLKDPNSDKTYTVTLPIEDKSPEEVIQEIEEKLGVEVVEVKPESAGGSAGGSAGG [r7_590_JUSTAS] | 2.02 ± 0.06
18 | SAGGSAKKKKGKKKKKIKKIKIKLKLPPGAEIVKIDKEKGVIYIRNKKTNKIYKIDLKTGKIVEIPSAGGSA [r15_452_TrROS_Hall] | 3.27 ± 0.39
19 | SAGGSAGGSGDGDYKNDPNGEQERKPKPPPVPPILVFKVELDIDANGNLDLSPDLGWFPPDAISAGGSAGGS [r12_1027_TrROS] | 1.42 ± 0.14
20 | SAGGSAGGSAGGATFKPGETVRVEVEVELRVFKVDEETGEIVEETETVTVRVEVEVRLESAGGSAGGSAGGS [r10_122_TrROS_Hall] | 2.04 ± 0.11
21 | SAGGMMKIKITIINENGETLTIEIEVPEEDLEEAIKALEDELKKKGYEIESIERVNGKITITVRIKPSAGGS [r16_662_TrROS_Hall] | 4.12 ± 0.12

Test: folding stability dG unfold from chymotrypsin proteolysis; higher = more stable
Procedure, shortened: as §1

Row | Sequence | folding stability dG unfold [kcal/mol]
22 | SAGGALKELPDGSVELYYNTETGLFTVRVRHPDKPPLVFTVESPEDALKFAKALEEKGIKIDKVVPAPSAGG [r13_727_TrMRF] | 1.86 ± 0.065
23 | SAGGSAGDLELIGVFPFTLPDGRRITVPIFRDPSTGERYLFAETEGEEEDLTPAAIETALAVLERESAGGSA [r15_529_TrMRF] | 2.09 ± 0.037
24 | SAGNWKIEIKVKHRRTPDGYYRVTARIQIWDPKNGKPLREIPIEGPFDSPEQAERRARKKAKEILKALSAGG [r19_255_TrROS] | 2.71 ± 0.044
25 | SAGGSAGGSAEPDIEVVVTPVPGPYGPLYYRVEVRIPEAGRTVFTYARLDDPEEIEGIPIESAGGSAGGSAG [r3_432_TrMRF] | 0.545 ± 0.16
26 | SAGGSAGGSAGGMTLEELKNLKPGEEVEIEIEVYDKNGKKVSKYRIRIYNDKIEIEKLPSAGGSAGGSAGGS [r10_394_TrROS_Hall] | 2.991 ± 0.026
27 | SAGSRTVTLTFYRPLSRPPGGAPVVREAERTVTLNLPDDTLSEEEIEALAEELRAEHPDVEVEITIDDSAGG [r19_369_JUSTAS] | 1.41 ± 0.092
28 | SAGGSKPLKKIVIPLTPEELKKLKGKKVKITIKVDGKEYEIEFIDGYAVITVPAGEKVEITKIEIESAGGSA [r2_246_TrROS_Hall] | 2.36 ± 0.12
29 | SAGKKKVIIVKVKPEDLEKLLEAIKKLPKEKVKRIEIEVNGKLYLIEVTDKEIKIYDIETGEEKTIKLSAGG [r19_154_TrROS_Hall] | 2.6 ± 0.061
30 | SAGGSAMKPGEPVEFNIMIKIRDPNGKPVGEIDIKVEYPKGQSESQMFDRARNEINNLAPEGHLEISAGGSA [r15_310_TrROS] | 0.486 ± 0.21
31 | SADDDEEQKEKQKPKPQIPIKPVATYNFPDHPFEIWEIDPDNGRIIIRFWGNGWWYEMDPEDGEWEWYPSAG [r14_359_TrROS] | 2.26 ± 0.059
